Experimental findings from publication PMC3116811 (PLoS Pathogens, 2011) are described below.

In the assay the target is T1, chimeric Nb_An05-Fc HCAb (Nb_An05 fused to the hinge and Fc-domain of human IgG1) (camelid).
T1 construct: also called synthetic HCAb; reconstituted HCAb; not shown: Fc (human IgG1, including the hinge), C-terminal, kept
Briefly: ELISA; format not told; Nb_An05-Fc HCAb on the VSG antigen. The settings on record: both partners purified. A general note: ELISA stands for enzyme-linked immunosorbent assay.

B1: purified soluble AnTat1.1 VSG (variant-specific surface glycoprotein of Trypanosoma brucei AnTat1.1) (natural protein)
chain: QTAGRPLADVVGKTLCTYSKTAKRQAANLAQTLQRASSAAKQSRQAQQLAALALAKLPDYKEAAATLLIYATHKIQDAQASIENWTGENTKLVGQAMYSSGRIDELMLLLEGHREDGANGQDKTCLGAAAGGNTVNEFVKTECDTESGHNIEADNSNIGQAATTLSQESTDPEASGGASCKITANLATDYDSHANELPLLGGLLTIHNAGGFKTGQSLQTAAPTNKLISALKNKGAGVAAKLATVTSAAPTSKQELKTLLASKGERAKLQAANDEYNNWKPGAKPEDFDAHIKKVFGAEDGKDSAYAIALEGISIEAPLGGGQTQNKQLYSMQPKDLMAALIGTIAELQTAAATKPACPGHKQTTTESDALCSKIKDANECNSKHFCSYNGTETDSAKKCKYNATKASASDAPVTQAQTTSRSETPAEKCTGKKKDDCKDGCKWEAETCKD
On to B1, for which the binding result was “binds”.
